According to publication PMC12574954 (2025):

Biological target: T1, thermolysin-generated VSV Gect (aa residues 1-422) (Vesicular stomatitis virus, UniProt P0C2X0 17-438)
T1 chain: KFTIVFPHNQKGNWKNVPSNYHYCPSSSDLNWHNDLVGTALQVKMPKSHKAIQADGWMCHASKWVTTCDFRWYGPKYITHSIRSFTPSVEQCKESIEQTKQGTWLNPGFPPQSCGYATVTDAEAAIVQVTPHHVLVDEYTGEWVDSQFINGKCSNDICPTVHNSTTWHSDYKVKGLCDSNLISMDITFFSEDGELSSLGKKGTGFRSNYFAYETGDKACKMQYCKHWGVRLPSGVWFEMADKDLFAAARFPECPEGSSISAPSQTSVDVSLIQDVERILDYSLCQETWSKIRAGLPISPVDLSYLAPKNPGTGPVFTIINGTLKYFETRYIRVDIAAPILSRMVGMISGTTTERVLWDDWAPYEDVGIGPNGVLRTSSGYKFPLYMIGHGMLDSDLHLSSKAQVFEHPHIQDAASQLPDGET
Assay: BLI

B1: recombinant Fab 8G5F11 (Fab, V domains shown)
VH: DVQLQESGPDLVKPSQSLSLTCTVTGYSITSGYSWHWNRQFPGNKLEWMGYIHYSGLTNYNPSLKSRISITRHTSKNQFFLQLNSVTTEDTATYYCVRGGYDGRDYYAMDFWGQGTSVTVSS
VL: DIVMTQSHKFMSTSVGDRVSITCKASQDVDNDVAWYQQKPGQSPKLLIYWASTRHTGVPDRFTGSGSGTDFTLTISDVQSEDLSDYFCQQYSSYPFTFGGGTRLEIK
Kd: 0.72 nM

B2: monoclonal antibody 8G5F11 (antibody, V domains shown)
VH: B1 VH
VL: B1 VL
Kd: 1.01 nM
